Experimental data as given in patent publication US20220168396A1, “MULTI-RECEPTOR AGONIST AND MEDICAL USE THEREOF” (published 2022).
Square brackets hold non-standard residues; d marks the D form. Ends that are not written are not given here. Aib = CC(C)(N)C(=O)O

T1: human glucose-dependent insulinotropic peptide receptor (human, UniProt P48546)
T1 sequence: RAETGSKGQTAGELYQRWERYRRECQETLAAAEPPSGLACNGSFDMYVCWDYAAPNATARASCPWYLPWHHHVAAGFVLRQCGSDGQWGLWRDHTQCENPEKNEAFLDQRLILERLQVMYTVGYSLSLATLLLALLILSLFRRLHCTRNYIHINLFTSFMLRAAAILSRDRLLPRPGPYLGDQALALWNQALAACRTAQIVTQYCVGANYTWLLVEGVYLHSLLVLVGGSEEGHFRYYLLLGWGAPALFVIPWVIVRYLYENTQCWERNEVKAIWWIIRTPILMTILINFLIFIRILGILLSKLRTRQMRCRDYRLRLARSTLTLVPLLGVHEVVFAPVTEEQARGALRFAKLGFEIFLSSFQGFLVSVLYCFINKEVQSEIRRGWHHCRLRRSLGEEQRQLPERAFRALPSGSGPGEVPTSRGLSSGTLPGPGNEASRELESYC


How the values were obtained:
[1] = molecular target: human glucagon-like peptide-1 receptor (human, UniProt P43220); assay: cell-based or functional assay
[2] = molecular target: T1, human glucose-dependent insulinotropic …; assay: cell-based or functional assay

Binder	Activity for human GLP-1R (EC50 nM), cAMP HTRF [1] [nM]	Activity for human GIPR (EC50 nM), cAMP HTRF [2] [nM]
Y[Aib]EGTFTSDYSIYLEKEAAKEFVAWLLAGGPSSGAPPPS-NH2 (N-terminus assumed; SMILES CC[C@H](C)[C@H](NC(=O)[C@H](CO)NC(=O)[C@H](Cc1ccc(O)cc1)NC(=O)[C@H](CC(=O)O)NC(=O)[C@H](CO)NC(=O)[C@@H](NC(=O)[C@H](Cc1ccccc1)NC(=O)[C@@H](NC(=O)CNC(=O)[C@H](CCC(=O)O)NC(=O)C(C)(C)NC(=O)[C@@H](N)Cc1ccc(O)cc1)[C@@H](C)O)[C@@H](C)O)C(=O)N[C@@H](Cc1ccc(O)cc1)C(=O)N[C@@H](CC(C)C)C(=O)N[C@@H](CCC(=O)O)C(=O)N[C@@H](CCCCN)C(=O)N[C@@H](CCC(=O)O)C(=O)N[C@@H](C)C(=O)N[C@@H](C)C(=O)N[C@@H](CCCCN)C(=O)N[C@@H](CCC(=O)O)C(=O)N[C@@H](Cc1ccccc1)C(=O)N[C@H](C(=O)N[C@@H](C)C(=O)N[C@@H](Cc1c[nH]c2ccccc12)C(=O)N[C@@H](CC(C)C)C(=O)N[C@@H](CC(C)C)C(=O)N[C@@H](C)C(=O)NCC(=O)NCC(=O)N1CCC[C@H]1C(=O)N[C@@H](CO)C(=O)N[C@@H](CO)C(=O)NCC(=O)N[C@@H](C)C(=O)N1CCC[C@H]1C(=O)N1CCC[C@H]1C(=O)N1CCC[C@H]1C(=O)N[C@@H](CO)C(N)=O)C(C)C) [Compound No. 66]	0.026	0.054
Y[Aib]EGTFTSDVSIYLDKIAAQEFVNWLLAGGPSSGAPPPS-NH2 (N-terminus assumed; SMILES CC[C@H](C)[C@H](NC(=O)[C@H](CCCCN)NC(=O)[C@H](CC(=O)O)NC(=O)[C@H](CC(C)C)NC(=O)[C@H](Cc1ccc(O)cc1)NC(=O)[C@@H](NC(=O)[C@H](CO)NC(=O)[C@@H](NC(=O)[C@H](CC(=O)O)NC(=O)[C@H](CO)NC(=O)[C@@H](NC(=O)[C@H](Cc1ccccc1)NC(=O)[C@@H](NC(=O)CNC(=O)[C@H](CCC(=O)O)NC(=O)C(C)(C)NC(=O)[C@@H](N)Cc1ccc(O)cc1)[C@@H](C)O)[C@@H](C)O)C(C)C)[C@@H](C)CC)C(=O)N[C@@H](C)C(=O)N[C@@H](C)C(=O)N[C@@H](CCC(N)=O)C(=O)N[C@@H](CCC(=O)O)C(=O)N[C@@H](Cc1ccccc1)C(=O)N[C@H](C(=O)N[C@@H](CC(N)=O)C(=O)N[C@@H](Cc1c[nH]c2ccccc12)C(=O)N[C@@H](CC(C)C)C(=O)N[C@@H](CC(C)C)C(=O)N[C@@H](C)C(=O)NCC(=O)NCC(=O)N1CCC[C@H]1C(=O)N[C@@H](CO)C(=O)N[C@@H](CO)C(=O)NCC(=O)N[C@@H](C)C(=O)N1CCC[C@H]1C(=O)N1CCC[C@H]1C(=O)N1CCC[C@H]1C(=O)N[C@@H](CO)C(N)=O)C(C)C) [Compound No. 69]	0.052	0.12
Y[Aib]EGTFTSDYSIYLEKEAAKEFIQWLLAGGPSSGAPPPS-NH2 (N-terminus assumed; SMILES CC[C@H](C)[C@H](NC(=O)[C@H](Cc1ccccc1)NC(=O)[C@H](CCC(=O)O)NC(=O)[C@H](CCCCN)NC(=O)[C@H](C)NC(=O)[C@H](C)NC(=O)[C@H](CCC(=O)O)NC(=O)[C@H](CCCCN)NC(=O)[C@H](CCC(=O)O)NC(=O)[C@H](CC(C)C)NC(=O)[C@H](Cc1ccc(O)cc1)NC(=O)[C@@H](NC(=O)[C@H](CO)NC(=O)[C@H](Cc1ccc(O)cc1)NC(=O)[C@H](CC(=O)O)NC(=O)[C@H](CO)NC(=O)[C@@H](NC(=O)[C@H](Cc1ccccc1)NC(=O)[C@@H](NC(=O)CNC(=O)[C@H](CCC(=O)O)NC(=O)C(C)(C)NC(=O)[C@@H](N)Cc1ccc(O)cc1)[C@@H](C)O)[C@@H](C)O)[C@@H](C)CC)C(=O)N[C@@H](CCC(N)=O)C(=O)N[C@@H](Cc1c[nH]c2ccccc12)C(=O)N[C@@H](CC(C)C)C(=O)N[C@@H](CC(C)C)C(=O)N[C@@H](C)C(=O)NCC(=O)NCC(=O)N1CCC[C@H]1C(=O)N[C@@H](CO)C(=O)N[C@@H](CO)C(=O)NCC(=O)N[C@@H](C)C(=O)N1CCC[C@H]1C(=O)N1CCC[C@H]1C(=O)N1CCC[C@H]1C(=O)N[C@@H](CO)C(N)=O) [Compound No. 65]	0.013	0.027
